According to PMC2685776 (Oncogene, 2009):
Where “and” joins values, the source holds several entries; their conditions need not be identical. Identical values can stand only once. One block for each substance: values may come before it.

What was measured:
CBP Kix = CBP Kix (UniProt Q92793); conditions: cited from earlier work
[1] = molecular target: p53 TAD peptide 1-57 Hepta-(Ala) (human) (UniProt P04637); assay: fluorescence polarisation
[2] = molecular target: p53 TAD peptide 10-57 Hepta-(Asp) (human) (UniProt P04637); assay: fluorescence polarisation
Kix = conditions: ref Zor et al., 2002, cited from earlier work

Sequence of CREB (P16220 whole entry): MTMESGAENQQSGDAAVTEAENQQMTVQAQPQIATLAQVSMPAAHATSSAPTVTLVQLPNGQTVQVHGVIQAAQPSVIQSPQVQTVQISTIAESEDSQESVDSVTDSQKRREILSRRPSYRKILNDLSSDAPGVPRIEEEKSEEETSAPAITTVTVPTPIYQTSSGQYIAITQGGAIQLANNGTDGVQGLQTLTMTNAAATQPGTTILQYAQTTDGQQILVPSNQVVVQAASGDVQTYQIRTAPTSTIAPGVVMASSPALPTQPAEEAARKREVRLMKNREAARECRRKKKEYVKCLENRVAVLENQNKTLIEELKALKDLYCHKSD
Sequence of UniProt Q92793 (Q92793 587-666): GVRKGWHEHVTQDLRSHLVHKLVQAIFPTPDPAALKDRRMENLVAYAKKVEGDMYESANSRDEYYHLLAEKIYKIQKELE

Substance: CREB (from UniProt P16220)
Kd (CBP Kix): 0.7 µM

Kd [1]: 0.56 µM
Kd [2]: 0.038 µM
Substance: p300 Taz1 domain (from UniProt Q09472 1-2414) (domain or fragment)

Substance: CREB: transcription factor CREB, phosphorylated on Ser133, binding Kix (literature)
Kd (Kix; read-out: KD, Kix, CREB phosphorylated at Ser133): 0.7 µM
fold tighter Kix binding upon phosphorylation of Ser133 (Kix): 150 fold and ~ 150 fold
